From patent US20150203575A1 (Genentech, published 2015) come the findings set out here.

Assay [1] has as its target T1, human COLEC12 expressed on cells (human, UniProt Q5KU26 1-742).
T1 construct: also called hCOLEC12; C-terminal his tagged hCOLEC12
The experiment in a line: flow cytometry, transfected 293T cells, 50 µg/ml.

In the next assay the target is T2, BR3 expressed on cells (human, UniProt Q96RJ3 1-184).
T2 construct: Clone of the Origene human cDNA library
T2 sequence: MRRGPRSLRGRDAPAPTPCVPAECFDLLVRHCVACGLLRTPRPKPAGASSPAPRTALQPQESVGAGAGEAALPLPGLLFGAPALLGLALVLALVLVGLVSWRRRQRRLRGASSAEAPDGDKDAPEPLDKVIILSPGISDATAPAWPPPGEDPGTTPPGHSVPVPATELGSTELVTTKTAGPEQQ
Description: flow cytometry, transfected 293T cells, 2 µg/ml.

Assay [2] deals with T3, IL-2Ra expressed on cells (human, UniProt P01589 22-272).
T3 construct: Clone of the Origene human cDNA library; also called Interleukin 2 receptor alpha
T3 sequence: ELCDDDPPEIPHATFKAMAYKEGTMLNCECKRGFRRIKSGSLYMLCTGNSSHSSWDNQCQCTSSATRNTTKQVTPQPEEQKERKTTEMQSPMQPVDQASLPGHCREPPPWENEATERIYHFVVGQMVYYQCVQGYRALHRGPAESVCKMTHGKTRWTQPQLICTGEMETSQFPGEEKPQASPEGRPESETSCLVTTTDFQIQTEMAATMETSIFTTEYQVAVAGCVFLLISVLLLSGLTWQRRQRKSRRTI
The experiment in a line: flow cytometry, transfected 293T cells, 2 µg/ml.

The next assay deals with T4, PSS8 expressed on cells (human, UniProt Q16651 30-343).
T4 construct: Clone of the Origene human cDNA library; also called Protease serine 8; prostasin
T4 sequence (Q16651 30-343 limits assumed): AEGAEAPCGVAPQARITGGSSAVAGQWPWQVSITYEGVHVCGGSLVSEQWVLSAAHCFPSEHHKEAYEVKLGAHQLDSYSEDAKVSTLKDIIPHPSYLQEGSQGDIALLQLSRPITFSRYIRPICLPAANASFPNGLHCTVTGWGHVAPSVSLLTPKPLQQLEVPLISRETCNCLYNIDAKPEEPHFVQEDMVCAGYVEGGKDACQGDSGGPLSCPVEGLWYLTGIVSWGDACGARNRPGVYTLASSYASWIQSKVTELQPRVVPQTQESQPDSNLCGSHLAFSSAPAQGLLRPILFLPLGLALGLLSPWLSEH
Description: flow cytometry, transfected 293T cells, 2 µg/ml.

In assay [3] the target is T5, CLEC4G expressed on cells (human, UniProt Q6UXB4 1-293).
T5 construct: Clone of the Origene human cDNA library; also called C type lectin superfamily 4 member G
T5 sequence: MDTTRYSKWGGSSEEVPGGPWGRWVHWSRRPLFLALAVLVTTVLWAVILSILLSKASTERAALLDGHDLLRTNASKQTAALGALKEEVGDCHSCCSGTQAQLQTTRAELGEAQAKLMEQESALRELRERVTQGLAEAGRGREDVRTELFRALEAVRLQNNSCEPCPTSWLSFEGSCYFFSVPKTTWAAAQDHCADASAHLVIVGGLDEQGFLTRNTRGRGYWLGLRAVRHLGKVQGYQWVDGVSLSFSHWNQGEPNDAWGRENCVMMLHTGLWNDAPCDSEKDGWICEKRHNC
The experiment in a line: flow cytometry, transfected 293T cells.

The target in another assay is T6, ETBR expressed on cells (human, UniProt P24530 27-442).
T6 construct: Clone of the Origene human cDNA library; also called Endothelin receptor type B
T6 sequence: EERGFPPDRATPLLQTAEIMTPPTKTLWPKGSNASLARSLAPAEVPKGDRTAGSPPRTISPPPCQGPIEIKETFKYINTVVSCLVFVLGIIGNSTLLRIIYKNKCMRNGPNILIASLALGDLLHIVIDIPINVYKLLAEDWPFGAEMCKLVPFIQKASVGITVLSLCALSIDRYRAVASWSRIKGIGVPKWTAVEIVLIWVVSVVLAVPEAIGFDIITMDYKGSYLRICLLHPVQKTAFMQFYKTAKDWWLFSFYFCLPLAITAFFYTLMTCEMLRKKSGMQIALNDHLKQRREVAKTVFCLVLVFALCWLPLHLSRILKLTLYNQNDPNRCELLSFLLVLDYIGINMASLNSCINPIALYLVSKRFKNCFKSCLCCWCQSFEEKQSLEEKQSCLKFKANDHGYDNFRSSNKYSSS
The experiment in a line: cDNA expression library screen with PILRα-AP supernatant on COS7 transfectants; positive clones further analysed by FACS.

In assay [4] the target is T5, CLEC4G expressed on cells. Described as above.
Description: (§1) COS7 cells were plated in a 24-well format and transfected with 10 ul of Origene library DNA (Origene, human DNA library containing 20 k genes) per well with Fugene 6 Reagent. Two days later, cells were incubated with human or mouse PILRα-Ap supernatants for 45 min at room temperature (RT). Then cells were fixed with 4% PFA for 15 min at RT. After removing fixation buffer, cells were blocked with 100 mM Glycine in HBS (20 mM Hepes, PH7.2, 150 mM NaCl) for 15 min at RT. Cells were then rinsed and incubated in HBS for 90 min at 65° C. HBS was removed and Western Blue Substrate (Promega) was added and color was developed for 30 min to 1 hr.
In the next assay the target is T7, MAG expressed on cells (human, UniProt P20916 20-626).
T7 construct: Clone of the Origene human cDNA library; also called Myelin associated glycoprotein; SIGLEC4A
T7 sequence: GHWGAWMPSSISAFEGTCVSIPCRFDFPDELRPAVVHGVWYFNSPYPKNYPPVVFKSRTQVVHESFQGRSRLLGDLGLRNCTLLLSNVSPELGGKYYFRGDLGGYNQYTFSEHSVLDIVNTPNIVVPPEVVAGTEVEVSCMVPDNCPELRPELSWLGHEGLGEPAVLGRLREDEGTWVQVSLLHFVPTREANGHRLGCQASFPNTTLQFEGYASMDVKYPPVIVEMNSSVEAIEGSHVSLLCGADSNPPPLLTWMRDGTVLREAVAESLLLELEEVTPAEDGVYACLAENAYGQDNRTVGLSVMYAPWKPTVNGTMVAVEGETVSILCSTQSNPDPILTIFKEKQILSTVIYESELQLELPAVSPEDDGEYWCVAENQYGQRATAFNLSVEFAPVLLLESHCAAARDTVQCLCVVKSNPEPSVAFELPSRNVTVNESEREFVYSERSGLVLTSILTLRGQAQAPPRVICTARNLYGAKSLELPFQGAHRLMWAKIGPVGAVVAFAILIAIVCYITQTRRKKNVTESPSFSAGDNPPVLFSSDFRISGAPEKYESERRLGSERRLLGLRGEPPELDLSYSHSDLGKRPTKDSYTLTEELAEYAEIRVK
The assay is described as above.

The target in assay [5] is T8, LRRTM4 expressed on cells (human, UniProt Q86VH4 31-590).
T8 construct: Clone of the Origene human cDNA library; also called Leucine rich repeat transmembrane neuronal 4
T8 sequence (Q86VH4 31-590 limits assumed): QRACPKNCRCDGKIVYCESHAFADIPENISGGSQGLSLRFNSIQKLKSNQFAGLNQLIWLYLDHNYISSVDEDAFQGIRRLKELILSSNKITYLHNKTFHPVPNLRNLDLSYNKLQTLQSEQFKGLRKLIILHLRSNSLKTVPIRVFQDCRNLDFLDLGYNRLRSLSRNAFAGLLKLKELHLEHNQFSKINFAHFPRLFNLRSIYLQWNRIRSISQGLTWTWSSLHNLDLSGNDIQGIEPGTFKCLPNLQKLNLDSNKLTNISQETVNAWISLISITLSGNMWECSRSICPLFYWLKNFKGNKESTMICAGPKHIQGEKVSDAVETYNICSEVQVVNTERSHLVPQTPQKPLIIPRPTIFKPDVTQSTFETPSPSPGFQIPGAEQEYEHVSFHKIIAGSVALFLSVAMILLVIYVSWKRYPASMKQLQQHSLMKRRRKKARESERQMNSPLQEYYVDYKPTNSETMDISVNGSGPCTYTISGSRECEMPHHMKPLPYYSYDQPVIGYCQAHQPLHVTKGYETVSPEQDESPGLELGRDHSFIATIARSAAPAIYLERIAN
Described as above.
Description: as §1

A further assay concerns the target T9, WDR31 expressed on cells (human, UniProt Q8NA23 1-367).
T9 construct: Clone of the Origene human cDNA library; also called WD repeat domain 31
Described as above.

Assay [6] deals with T10, IL15-RA expressed on cells (human, UniProt Q13261 31-267).
T10 construct: Clone of the Origene human cDNA library; also called Interleukin 15 receptor alpha
T10 sequence (Q13261 31-267 limits assumed): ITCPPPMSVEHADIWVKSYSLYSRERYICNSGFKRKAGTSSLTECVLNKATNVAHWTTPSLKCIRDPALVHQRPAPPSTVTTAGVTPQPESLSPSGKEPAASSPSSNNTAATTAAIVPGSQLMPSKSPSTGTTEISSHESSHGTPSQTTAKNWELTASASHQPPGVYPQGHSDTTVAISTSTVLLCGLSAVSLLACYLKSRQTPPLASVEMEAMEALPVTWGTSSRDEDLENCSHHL
Described as above.
Description: as §1

T9 sequence (Q8NA23 other isoform, or with tags, fused parts or gaps): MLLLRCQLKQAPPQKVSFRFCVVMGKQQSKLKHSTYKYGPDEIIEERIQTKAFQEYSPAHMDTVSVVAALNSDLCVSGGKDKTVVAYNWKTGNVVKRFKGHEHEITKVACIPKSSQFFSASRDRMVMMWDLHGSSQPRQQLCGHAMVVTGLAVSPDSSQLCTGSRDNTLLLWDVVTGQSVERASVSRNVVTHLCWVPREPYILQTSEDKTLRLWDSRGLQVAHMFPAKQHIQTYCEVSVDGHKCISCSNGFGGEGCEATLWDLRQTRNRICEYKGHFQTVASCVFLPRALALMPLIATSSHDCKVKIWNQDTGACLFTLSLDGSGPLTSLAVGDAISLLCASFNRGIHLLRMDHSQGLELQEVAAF
T1 sequence (Q5KU26 whole entry S522P/G606S): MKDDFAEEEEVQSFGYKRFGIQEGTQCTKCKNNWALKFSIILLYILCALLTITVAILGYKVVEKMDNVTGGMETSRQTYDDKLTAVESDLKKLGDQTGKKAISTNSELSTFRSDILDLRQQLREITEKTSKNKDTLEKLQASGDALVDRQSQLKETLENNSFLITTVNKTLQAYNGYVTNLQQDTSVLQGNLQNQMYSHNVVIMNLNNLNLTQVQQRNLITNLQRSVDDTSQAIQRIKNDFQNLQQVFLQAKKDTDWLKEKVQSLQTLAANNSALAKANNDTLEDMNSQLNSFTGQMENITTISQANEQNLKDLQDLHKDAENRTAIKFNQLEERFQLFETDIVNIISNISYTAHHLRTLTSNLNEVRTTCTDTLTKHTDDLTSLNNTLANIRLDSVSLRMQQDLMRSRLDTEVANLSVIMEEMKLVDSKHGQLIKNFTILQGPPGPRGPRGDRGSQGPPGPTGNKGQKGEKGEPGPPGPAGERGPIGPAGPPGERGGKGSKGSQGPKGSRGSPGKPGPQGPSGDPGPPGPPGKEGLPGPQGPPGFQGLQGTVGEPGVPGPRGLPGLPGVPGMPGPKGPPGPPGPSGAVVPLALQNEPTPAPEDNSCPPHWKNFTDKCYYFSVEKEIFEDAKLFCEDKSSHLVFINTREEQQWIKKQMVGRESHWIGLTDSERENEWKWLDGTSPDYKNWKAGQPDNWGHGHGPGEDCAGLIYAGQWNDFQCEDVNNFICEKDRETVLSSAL
Description for ETBR expressed on cells: as §1
Description for MAG expressed on cells: as §1
Description for WDR31 expressed on cells: as §1

B1: mPILRα-Fc (Fc fusion)
chain: not shown
notes: also called mouse PILRα-Fc; WT mPILRα-Fc; not shown: Fc of mouse IgG2a (PILRα-mIgG2a, called PILRα-Fc)
In the case of B1, the “% cells in lower right quadrant” value in assay [1] was 10.1%; with BR3 expressed on cells it was 34.1%; in assay [2], 14.1%; with PSS8 expressed on cells, 0.024%.

B2: mPILRαR133A-Fc (Fc fusion)
chain: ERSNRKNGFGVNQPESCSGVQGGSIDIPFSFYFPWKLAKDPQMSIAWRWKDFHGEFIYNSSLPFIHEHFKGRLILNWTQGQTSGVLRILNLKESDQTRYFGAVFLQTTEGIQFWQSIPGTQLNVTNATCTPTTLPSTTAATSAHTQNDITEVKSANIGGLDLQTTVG
notes: Arg mutant of mPILRα-Fc; also called mPILRα133A-Fc; variant mPILRα (R133A); not shown: Fc of mouse IgG2a (PILRα-mIgG2a, called PILRα-Fc)
Regarding B2, the binding result in assay [3] is “no binding (tested: 50 µg/ml)”.

B3: hPILRα-AP (other)
chain: QPSGSTGSGPSYLYGVTQPKHLSASMGGSVEIPFSFYYPWELATAPDVRISWRRGHFHRQSFYSTRPPSIHKDYVNRLFLNWTEGQKSGFLRISNLQKQDQSVYFCRVELDTRSSGRQQWQSIEGTKLSITQAVTTTTQRPSSMTTTWRLSSTTTTTGLRVTQGKRRSDSWHISLET
notes: Used as culture supernatant; also called human PILRα-AP; Alkaline phosphatase (AP)-tagged PILRα construct; not shown: C-terminal alkaline phosphatase (AP) tag
With B3, the binding result (with ETBR expressed on cells; in assay [4]; in the assay with MAG expressed on cells; in [5]; with WDR31 expressed on cells; in [6]) was “binds” in each case.
